# In patent US20230226096A1 (Orna Therapeutics, Inc., priority 2020, published 2023):
# System: HEK293 cells
# Type: cell-based, human
# Settings: luminescence from secreted Gluc in supernatant 24 hours after transfection of HEK293 cells; circular RNA encoding Gluc with the named IRES (UTR truncated to 675 nt)
row,Molecule,Expression
1,"Aichivirus KVGH (nucleic acid, listed as Aichivirus sp.) DNA: TACTCCATTCAGCTTCTTCGGAACCTGTTCGGAGGAATTAAACGGGCACCCATACTCCCCCCCACCCCCCTTTTGTAACTAAGTATGTGTGCTCGTGACCTTGACTCCCACGGAACGGACCGATCCGTTGGTGAACAAACAGCTAGGTCCACATCCTCCTTTCCCCTGGGAGGGTCCCCGCCCTCCCACATCCCCCCCCCAGCCTGACGTGTCACAGGCTGTGTGAAGCCCCCGCGAAAGCTGCTCACGTGGCAATTGTGGGTCCCCCCTTCATCAAGACACCAGGTCTTTCCTCCTTAAGGCTAGCCCCGGCGTGTGAACTCACGTTGGGCAACTAGTGGTGTCACTGTGCGCTCCCAATCTCGGCCGCGGAGTGCTGTTCCCCAAGCCAAACCCCTGGCCCTTCACTATGTGCCTGGCAAGCACACCTGAGAAGGTGTTCCGCTGTGGCTGCCAGCCTGGTAACAGGTGCCCCAGTGTGCGTAACCTTCTTCCGTCTTCGGACGGTGGTGATTGGTTAAGATTTGGTGTAAGGTTCATGTGCCAACGCCCTGTGCGGGATGAAACCTCTACTGCCCTAGGAATGCCAGGCAGGTACCCCACCTTCGGGTGGGATCTGAGCCTGGGCTAATTGTCTACGGGTGGTTTCATTTCCAATTCTTTCATGTCGGAGTC",1.72E+07
2,Picornavirales sp. isolate RtMruf-PicoV (nucleic acid) DNA: TTTGCTCAGCGTAACTTCTCCGGGTTACGTGGAGACCAAAAGGCTACGGAGACTCGGGCTACGGCCCTGGAGCACCTAGGTGCTCCTAAAGACGTTAGAAGTTGTACAAACTCGCCCAATAGGGCCCCCCAACCAGGGGGGTAGCGGGCAAGCACTTCTGTTTCCCCGGTATGATCTCATAGGCTGTACCCACGGCTGAAAGAGAGATTATCGTTACCCGCCTCACTACTTCGAGAAGCCCAGTAATGGTTCATGAAGTTGATCTCGTTGACCCGGTGTTTCCCCCACACCAGAAACCTGTGATGGGGGTGGTCATCCCGGTCATGGCGACATGACGGACCTCCCCGCGCCGGCACAGGGCCTCTTCGGAGGACGAGTGACATGGATTCAACCGTGAAGAGCCTATTGAGCTAGTGTTGATTCCTCCGCCCCCGTGAATGCGGCTAATCCCAACTCCGGAGCAGGCGGGCCCAAACCAGGGTCTGGCCTGTCGTAACGCGAAAGTCTGGAGCGGAACCGACTACTTTCGGGAAGGCGTGTTTCCTTTTGTTCCTTTTATCAAGTTTTATGGTGACAACTCCTGGTAGACGTTTTATTGCGTTTATTGAGAGATTTCCAACAATTGAACAGACTAGAACCACTTGTTTTATCAAACCCTCACAGAATAAGATAACA,2.26E+08
3,Niviventer confucianus picornavirus (nucleic acid) DNA: CCCTTTCATAACCCCCCCCTTTTAACCCAACCCTTCGTAACCGTACGCTTCACTCGCCTTTGGGTATAGCGGCCCAATGTGCTGAAGAAAAGGATACGCTATAAGGGGCCAACGGGTGGTGGCCCTTAAGACCACCCAACCTAGAAGCTTGTACACTCGGGCAATAGTGAGGCCCACATCCAGTGGGTCAAGCCCAAAGCATTCTTGTTCCCCGGTATGATCTCATAAGCTGTACCCACGGCTGAAAGAGTGATTATCGTTATCCCACTCAGTACTTCGGAGAGCCTAGTACACCACTTGGAAATGGAAGTCTGTGATCCGGGGTTGACCCTGAACCCCAGAAACTCATGATGAGGCTAACCTTCCCGAACACGGCGACGTGTGGTTAGCCTGCGCTGGCATGAGGCCTCTTTGTAGGCAGACTGAAATGGAAGGGTGACGAAGAGCCGACTGAGCTACTGTTTTATTCCTCCGGCCCCCTGAATGCGGCTAATCCTAACTCCTGGTCCAGTACTTGTAACCCAACAGGTGGCTGGTCGTAATGCGTAAGCCGGGAGCGGAACCGACTACTTTGGGGCGTCCGTGTTTCTCAATATTATTCATTTCTAGCTTATGGTGACAATTTATGATTGCAGAGATTGTGCTGTATTTGTGTCTGAGAGAAGAAGTAACAAT,6.10E+07
4,Rhinolophus picornavirus strain Henan-Rf265 (nucleic acid) DNA: CGGAACGTTGTATGCTCAGGGCGTAGGCACCACCCACGGGTGGTGCCTACACGTGTGGACTAAACCACACACTCTTTTCAGCACTTAGTGCTGCTATCTCTTTTTGTAACTTAGAAGTTTGTACACAATGCGTTAGGGCCACACATCCAGTGTGGTATCGCAAAGCACTTCTGTTTCCCCGGTGCTAGTAGGAGGGTGGCTGCTCCACGGCCACTTGCCGAACCCATCGTTACCCGACTCATTACTTCGCAAAGCCTAGTAACCCAGTTGAAGCAAGCCCGGCGTGTTCCGGTCAGGAAAAACCCCCCCTGGCCAGAAACATGTGATGAGGGTGGGCTATCCCCACTGGTGACAGTGAGCCCTCCCTGCGTTGGCACATGGCCCGATCTGGGCGTGGTTCTTGTGGATGCTGCCGAAGAGCCCCGTGAGCTAGTGTTTATACCGCCGGCCTCGTGAATGCGGCTAACCCTAACCCCGGAGCAGAGGCTACTGAAGCCACAGTAGTCGCTGTCGTAACGAGTAATTCTGGGATGGGACCGACTACTTTCGAGTGTCCGTGTTTCCTTTATTCTTTTATTGTTGTTTATGGTGACAAAC,3.85E+05
5,Apodemus agrarius picornavirus strain Longquan-Aa118 (nucleic acid) DNA: TTACTCAGCGTAACTACTCCGGGTTACGTGATGAAGAAGAGGCTACGGAGATTCTCGGGCTACGGCCCTGGAGCCACTCCGGCTCCTAAAGATTTAGAAGTTTGAGCACACCCGCCCACTAGGGCCCCCCATCCAGGGGGGCAACGGGCAAGCACTTCTGTTTCCCCGGTATGATCTGATAGGCTGTAACCACGGCTGAAACAGAGATTATCGTTATCCGCTTCACTACTTCGAGAAGCCTAGTAATGATGGGTGAAATTGAATCCGTTGATCCGGTGTCTCCCCCACACCAGAAACTCATGATGAGGGTTGCCATCCCGGCTACGGCGACGTAGCGGGCATCCCTGCGCTGGCATGAGGCCTCTTAGGAGGACGGATGATATGGATCTTGTCGTGAAGAGCCTATTGAGCTAGTGTCGACTCCTCCGCCCCCGTGAATGCGGCTAATCCTAACCCCGGAGCAGGTGGGTCCAATCCAGGGCCTGGCCTGTCGTAATGCGTAAGTCTGGGACGGAACCGACTACTTTCGGGAAGGCGTGTTTCCATTTGTTCATTATTTGTGTGTTTATGGTGACAACTCTGGGTAAACGTTCTATTGCGTTTATTGAGAGATTCCCAACAATTGAACAAACGAGAACTACCTGTTTTATTAAATTTACACAGAGAAGAATTACA,1.90E+08
6,Bat picornavirus isolate BtRs-PicoV (nucleic acid) DNA: TTTCAAAAGGCCCTGGGCATACGGCGTTATTCGTAACGTCGTATGTCCAGGGCGGTAGCATCAGGCCAAGGCCTGATGCTACCACGTGTGGACTAAACCACACACTCTTCTTGTGACACGTTGTGTCACCTATCCCTTTCTTGGTAACTTAGAAGCTTGTACACTTACGCACGTAGGTGCCCCACATCCAGTGGGGTTTGTGCAAAGCAATCTTGTTCCCCGGTAAACCCTGATAGGCTGTAACCACGGCCGAAACAAGGTTTGTCGTTACCCGACTCACTACTACACAAAGCCTAGTAAAGTTCAATGAAAGTGCGCAGCGTGATCCGGTCAAAACCCCCTTGACCAGAAACACATGATGAGGGTCACCAACCCCCACTGGCGACAGTGTGGTGTCCCTGCGTTGGCATGTGGCCTCGTAGAGGCGTTGCAATCTGGATTTGCTCCGAAGAGCCCCGTGTGCTAGTGTTTATACCTCCGGCCCCTTGAATGCGGCTAATCCTAACCCCCGAGCATGTACACACAAGCCAGTGTGTAGCATGTCGTAATGAGCAATTTGGGGATGGAACCGACTACTTTAGGGTGTCCGTGTTTCTCATTATTCTTTGTTTGATGTTTT,1.13E+06
